# Reference: patent US20230235078A1 (University of Texas, published 2023)
# T1: human DDR2 ECD (human, UniProt Q16832 22-399)
# T1 construct: extracellular domain; also called DDR2 ECD protein
# T1 sequence (looked up): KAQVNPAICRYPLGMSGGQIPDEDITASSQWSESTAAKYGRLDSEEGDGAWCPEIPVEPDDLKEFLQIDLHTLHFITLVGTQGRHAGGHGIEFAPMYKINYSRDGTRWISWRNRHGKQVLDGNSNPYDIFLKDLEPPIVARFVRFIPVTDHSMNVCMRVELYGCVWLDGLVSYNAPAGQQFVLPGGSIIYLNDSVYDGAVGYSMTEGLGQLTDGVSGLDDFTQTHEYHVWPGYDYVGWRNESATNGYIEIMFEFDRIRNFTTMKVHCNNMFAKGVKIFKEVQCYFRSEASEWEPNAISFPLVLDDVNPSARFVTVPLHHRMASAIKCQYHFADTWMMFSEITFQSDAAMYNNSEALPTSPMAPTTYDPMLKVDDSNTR
# Columns and labels:
# [1] = target: T2, Human DDR1 extracellular domain (ECD) protein (human, UniProt Q08345 21-417); experiment: ELISA on DDR1, antibody at 10 and 1 µg/ml
# T2 construct: it is treated here as the same molecule; also called recombinant human DDR1 ECD; huDDR1 ECD; not shown: 6xHIS-tag
# T2 sequence (Q08345 21-417): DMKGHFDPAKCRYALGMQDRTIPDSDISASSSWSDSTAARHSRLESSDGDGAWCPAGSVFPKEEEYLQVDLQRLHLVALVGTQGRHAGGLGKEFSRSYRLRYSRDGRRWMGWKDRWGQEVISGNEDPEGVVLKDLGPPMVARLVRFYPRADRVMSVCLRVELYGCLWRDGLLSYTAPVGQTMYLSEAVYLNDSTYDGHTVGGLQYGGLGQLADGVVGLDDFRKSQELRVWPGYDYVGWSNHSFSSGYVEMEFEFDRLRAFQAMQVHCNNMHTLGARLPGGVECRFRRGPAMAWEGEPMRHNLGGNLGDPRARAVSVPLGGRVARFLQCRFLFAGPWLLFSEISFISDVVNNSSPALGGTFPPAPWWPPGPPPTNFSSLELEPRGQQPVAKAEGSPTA
# human DDR2 ECD = target: T1, human DDR2 ECD; experiment: ELISA, DDR2 ECD coated, antibody at 1 ug/ml, HRP anti-rabbit detection
# Description: FIG. 19. Determination of cross-reactivity of a panel of monoclonal antibodies to human DDR2 using ELISA method. DDR1 or DDR2 ECD protein was coated on a high binding plate and each of monoclonal antibodies at 1 ug/ml concentration was added for binding detection with HRP conjugated anti-rabbit antibody (Jackson ImmuneResearch, PA).
# To determination cross-reactivity of a panel of anti-human DDR1 monoclonal antibodies to human DDR2 ECD, an ELISA method was used. DDR1 ECD or DDR2 ECD protein was coated on a high binding plate and each of monoclonal antibodies was applied at 1 ug/ml concentration and binding was detected using HRP conjugated anti-rabbit antibody (Jackson ImmuneResearch, PA). Monoclonal antibodies DDR1-3; DDR1-9; DDR1-10; DDR1-14 and DDR1-33 were specific for DDR1 epitopes, while clones DDR1-13; DDR1-15; DDR1-21; DDR1-22 and DDR1-34 appear to recognize epitopes present on both DDR1 and DDR2 ECD.
# [2] = target: T2, Human DDR1 extracellular domain (ECD) …; experiment: BLI (Octet); target not given, recombinant DDR1 assumed
Binder,binding result [1],further results
"DDR1-5 (antibody, V domains shown, also called DDR1-5K/DDR1-5H) VH: QSVKESGGRLVTPGTPLTLTCTVSGFTLSNNAISWVRQAPGKGLEWIGIIYASGRTYYATWAKGRFTISKTSTTVDLKMTSPTTEDTATYFCARGDTETDYGIPYFDLWGPGTLVTISS VL: ELVLTQTPASVSEPVGGTVTIKCQASQTISSWLSWYQQKPGQPPKLLIYYAFNLASGVPSRFKGSGSGTEYTLTISDLECADAATYYCQCTYGSGSSSSYGCAFGGGTELEIK",binds,–
"DDR1-34 (antibody, V domains shown, Rabbit variable domains; Detected with anti-rabbit HRP antibody in the DDR2 ELISA; also called DDR1-34K/DDR1-34H) VH: QSVKESGGGLVKPEGSLTLTCKASGFDLSSYYYMCWVRQAPGKGLEWIACIYTSSGATWYANWAKGRFTISKTSSTTVTLQMTALTAADTATYFCARGGWCDFNLWGPGTLVTISS VL: ELDLTQTPASVSAAVGGTVTISCQSSENLYKDNYLAWYQQKPGQPPKLLIYGASNLASGVPSRFKGSGSGTQFTLTISDLECDDAATYYCAGGYDSVVDFGGGTEVVVK",binds,binding result (human DDR2 ECD): binds
"DDR1-6 (antibody, V domains shown, also called DDR1-6K/DDR1-6H) VH: SQSLKESGGDLVKPGASRTLTCIAPGFSFSSSYYMCWVRQAPGKGLEWIACIYASSGSTYYASWAKGRFTISKTSSTTVTLQMTTLTAADTATYFCAAILGADYRLTRLDLWGQGTLVTVSS VL: ELVMTQTPSPVSAAVGGTVTISCQSSQSVYSNYLSWYQQKPGQPPKLLIYETSTLASGVPSRFKGSGSGTQFTLTISDVQCDDAATYYCQGGYSEIIENTFGGGTEVEIK",binds,–
"DDR1-20 (antibody, V domains shown, also called DDR1-20K/DDR1-20H) VH: QSVKESGGGLFKPMDTLTLTCTVSGFSLSDYAMSWVRQAPGKGLEWIGIINSRDDTGYASWAKGRFTISKTSSTTVDLRITSPTTEDTATYFCAREDSSIPFIVGNYYGMDLWGPGTLVTVSS VL: ELDLTQTPASVSAAVGGTVTINCQSSQIIDHDHLSWYQQKPGQRPKLLIYRASTLTSGVPSRFKGSGSGTDFTLTISDLECADVATYYCQNNNGMTVSDFNAFGGGTEVEIK",binds,–
"DDR1-15 (antibody, V domains shown, Rabbit variable domains; Detected with anti-rabbit HRP antibody in the DDR2 ELISA; also called DDR1-15K/DDR1-15H) VH: SQSLEESGGDLVKPGASLTLTCTASTFSFNSRYWTCWVRQAPGKGLEWIGCINNGDISTYYASWATGRFTISKSSSTTVTLHMTSLTAADTATYFCAKGGNLAGDCYGLWGPGTLVTISS VL: ELVMTQTPASVEVAVGGTVTIKCQASQTIYSSLAWYQQKPGQPPKLLIYKASTLASGVPSRFKGSGSGTQFTLTISGVQCDDAATYYCQQGSSISNVDKNAFGGGTEVEIK",binds,binding result (human DDR2 ECD): binds
"DDR1-1 (antibody, V domains shown, also called DDR1-1K/DDR1-1H) VH: QSVEESGGRLVTPGTPLTLTCTVSGFSLSRYAMTWVRQAPGKGLEWIGIIGSSGLTYFATWAKGRFTISKTSTTVDLKITSPTTEDTATYFCARGMWYDDSDDYEDYFNLWGPGTLVTISS VL: ELVLTQTPASVSAAVGGTVTINCQASQNIYSNLAWYQQKPGQPPKLLIYGASNLESGVPSRFKGSGSGTQFTLTISDLECDDAATYYCQSGYYSSSTDIAFGGGTEVVVK",binds,–
"DDR1-23 (antibody, V domains shown, also called DDR1-23K/DDR1-23H) VH: SQSVKESGGDLVKPGASLTLTCKASGFDLRSYYYMCWVRQAPGKGLEWIACIHGGEGNTYYASWAKGRFTISKTSSTAVTLQMTSLTAADTATYFCARGGWTNYFWGPGTLVTVSS VL: ELVLTQTPSSVSAAVGGTVTISCQSSQSVYSNNYLAWYQQKPGQPPKLLIYAASTLASGVPSRFKGSGSGTQFTLTISGVQCDDAAVYYCLGGYNDDANFGGGTEVEIK",binds,–
"DDR1-26 (antibody, V domains shown, also called DDR1-26K/DDR1-26H) VH: EQSLKESGGDLVKPGASLTLTCTASGFDLSSNYYMCWVRQAPGKGPEWIACIYSSNTRTWYARWAKGRFTISKTSSTAVTLQMTSLTAADTATYFCARGGWTNYLWGPGTLVTISS VL: ELDLTQTPSSVSAAVGGTVTISCQSSESVYSNNHLAWYQQKPGQPPKLLIYAASTLASGVPSRFSGSGSGTQFTLTISGVQCDDAAVYYCLGGYNDDANFGGGTEVVVK",binds,–
"DDR1-17 (antibody, V domains shown, also called DDR1-17K/DDR1-17H) VH: SSVEESGGRLVAPGTPLTLTCTVSGFSLNRYAMSWVRQAPGKGLEWIGIIGSSGSTYYASWAKGRFTISKTSTTVDLKITSPTTEDTATYFCARDLDDSYGYTYATGMDIRLDLWGQGTLVTVSS VL: ELVLTQTPASVSEPVGGTVTIKCQASQSIGSYLSWYQQKAGQPPKRLIYEASTLASGVPSRFSGSGSGTDFTLTISDLECADVATYYCQNNNGMTVSDFNAFGGGTEVEIK",binds,–
"DDR1-9Hu-Ab2 (antibody, V domains shown, Humanized form of DDR1-9) VH: QVQLVESGGRVVQPGRSLRLSCTASGFSLNRYYMLWVRQAPGKGLEWIGTISYGDTTYYASWAKGRFTISRDNSKNTLYLQMNSLRAEDTAVYYCARADTGDNGYLGLQLWGQGTLVTVSS VL: DIQMTQSPSSVSASVGDRVTITCRASQSIGSVLAWYQQKPGKAPKLLIYGVFSLQSGVPSRFSGSGSGTDFTLTISSLQPEDFATYYCQYIPYGSSPFGGGTKVEIK",–,Kd [2]: 0.77 nM; koff [2]: 0.000113 s⁻¹; kon [2]: 146000 M⁻¹ s⁻¹

# More lines, main results first:
binding result [1],Binder,further results
binds,"DDR1-29 (antibody, V domains shown, also called DDR1-29K/DDR1-29H) VH: QSVKSGGGLVKPGASLTLTCKASTFSFNSRYWTCWVRQAPGKGLEWIGCINNGDITTYYTNWATGRFTISKSSSTTVTLQMTSLTAADTATYFCAKGGNLAGDCYGLWGPGTLVTISG VL: ELVMTQTPASVEAAVGGTVTIKCQASQSISNHLGWYQQKPGQPPKLLIYRASTLESGVSSRFKGSGSGSEFTLTISDLECADAATYYCQSYYIINRSNYANSFGGGTEVEIK",–
binds,"DDR1-21 (antibody, V domains shown, Rabbit variable domains; Detected with anti-rabbit HRP antibody in the DDR2 ELISA; also called DDR1-21K/DDR1-21H) VH: QSLEESGGRLVTPGTPLTLTCTVSGFSLSSYGVHWVRQAPGKGLDWIGKIYPSGSIYYSSWAKGRFTISKTSTTVDLKMTSLTTEDTATYFCVRYLTGSSDLHLWGPGTLVTISS VL: ELVLTQTPSSTSAAVGGTVTISCQSSQSVVDKNWLAWYQQKPGQPPKLLIYEASKLASGVPPRFSGSGSGTQFTLTISGVQCDDAATYYCAGDFESGVSGFGGGTEVEIK",binding result (human DDR2 ECD): binds
binds,"DDR1-13 (antibody, V domains shown, Rabbit variable domains; Detected with anti-rabbit HRP antibody in the DDR2 ELISA; also called DDR1-13K/DDR1-13H) VH: EQSVEESGGRLVTPGGSLTLTCTASGFSLNNYAIIWVRQAPGKGLEYIGIFNNGDIYYANWAKGRFTISKTSTTVGLKIVSPTTEDTATYFCARTGYRTGGWLWGPGTLVTISS VL: ELVMTQTPSPVSAAVGGTVSISCQSSKSVYNNNALSWFQQKPGQPPKVLIYGVSTLDSGVSSRFSGSGYGTEFTLTISDVQCDDAATYYCAGDYSDISDNNFGGGTELEIK",binding result (human DDR2 ECD): binds
binds,"DDR1-12 (antibody, V domains shown, also called DDR1-12K/DDR1-12H) VH: QSLEESGGRLVTPGTPLTLTCTVSGIDLSNTWMNWVRQAPGKGLEWIGVITDSGTTYYANWAKGRFTISRTSTTVDLKMPSLTTEDTATYFCGRDPGDITSGTNDLWGPGTLVTISS VL: ELVLTQTPASVSEPVGGTVTIKCQASQTIYSNLAWYQQKPGQRPKLLIYQASKLASGVPSRFKGSGSGTEYTLTISDLECADAATYYCQSYYGADDYTFGGGTEVVVK",–
binds,"DDR1-28 (antibody, V domains shown, also called DDR1-28K/DDR1-28H) VH: QSVEESGGRLVTPGTPLTLTCTVSGFSLSSHDMIWVRQAAGKGLEWIGLIISSGNTWYASWAKGRFTISKTSTTVDLKMTSLTTEDTATYFCARDVYSGASPWGPGTLVTISS VL: ELDLTQTPASVEAAVGGTVTIKCQASQSIDNNDLAWYQQKPGQPPNLLISRTSTLASGVSSRFKGSGSGTEFTLTISDLECADAATYYCQSYCVNTYGYTFGGGTEVVVK",–
binds,"DDR1-11 (antibody, V domains shown, also called DDR1-11K/DDR1-11H) VH: QSLEESGGDLVKPGASLTLTCTASGFSFSSGYYMCWVRQAPGKGLEWIACIYTGRTDFTDYASWAKGRFTISKTSSTTVTLQLTTLTAADTATYFCARGDYSGGVGGNYWLDLWGQGTLVTISS VL: ELVMTQTASPVSAAVGGTVTINCQASQSIGSTYLSWYQQKPGQPPKLLIYKASILASGVPSRFSGSGSGTEYTLTISGVQCDDAATYYCLYGGFGSSTGDAFGGGTVLVVK",–
binds,"DDR1-22 (antibody, V domains shown, Rabbit variable domains; Detected with anti-rabbit HRP antibody in the DDR2 ELISA; also called DDR1-22K/DDR1-22H) VH: QSVKESGGRLVTPGGSLTLTCTVSGFSLSDYAMIWVRQAPGKGLEYIGIINNGDIYYATWAKGRFTISETSSTTMGLNIISPTTEDTATYFCARPGYRTGIWLWGPGTLVTISS VL: ELVLTQTPSPVSAAVGGTVTINCQSSKNIYNNNALSWFQQKPGQPPKLLIYGASTLASGVPSRFKGSGSGTQFTLTISDVQCDDAATYYCAADYSDISDNNFGGGTEVVVK",binding result (human DDR2 ECD): binds
